From publication PMC9751120 (Cell Death and Differentiation, 2022)

T1: ΔNp63α (human, UniProt Q9H3D4-2 1-586)
T1 construct: open, tetrameric; also called DNp63a; source: E. coli, bacterially expressed and purified (IMAC, SEC on Superose 6)
T1 sequence (looked up): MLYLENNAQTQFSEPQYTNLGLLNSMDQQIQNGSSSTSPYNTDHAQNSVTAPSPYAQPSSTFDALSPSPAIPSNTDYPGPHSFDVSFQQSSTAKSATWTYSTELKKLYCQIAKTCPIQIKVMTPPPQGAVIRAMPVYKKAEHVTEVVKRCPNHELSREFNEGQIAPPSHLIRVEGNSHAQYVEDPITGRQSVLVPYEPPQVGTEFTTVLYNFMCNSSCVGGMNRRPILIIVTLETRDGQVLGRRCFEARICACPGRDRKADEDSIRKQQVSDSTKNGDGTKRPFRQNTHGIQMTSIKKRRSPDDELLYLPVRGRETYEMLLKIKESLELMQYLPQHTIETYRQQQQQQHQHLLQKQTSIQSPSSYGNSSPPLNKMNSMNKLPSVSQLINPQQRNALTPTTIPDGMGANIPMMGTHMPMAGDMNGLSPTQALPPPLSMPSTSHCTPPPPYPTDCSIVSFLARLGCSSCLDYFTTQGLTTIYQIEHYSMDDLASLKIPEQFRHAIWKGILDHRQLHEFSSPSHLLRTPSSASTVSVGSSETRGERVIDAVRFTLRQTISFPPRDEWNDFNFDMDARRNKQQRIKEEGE


How the values were obtained:
Settings in all cases: both partners purified
p63 DNA-binding domain = molecular target: T2, p63 DNA-binding domain (human); assay: ITC; target protein titrated into a constant concentration of DARPin, 25 injections of 10 µl; 50 mM HEPES pH 7.4, 150 mM NaCl, 0.5 mM TCEP; 10 °C; AB hetero-association model (SEDPHAT)
T2 construct: also called p63 DBD; source: E. coli BL21(DE3) Rosetta, purified (IMAC, TEV digestion, reverse IMAC, SEC)

p73 DNA-binding domain = molecular target: T3, p73 DNA-binding domain; assay: ITC; target protein titrated into a constant concentration of DARPin, 25 injections of 10 µl; 50 mM HEPES pH 7.4, 150 mM NaCl, 0.5 mM TCEP; 25 °C; AB hetero-association model (SEDPHAT)
T3 construct: also called p73 DBD; source: E. coli BL21(DE3) Rosetta, purified (IMAC, TEV digestion, reverse IMAC, SEC)

ΔNp63α = molecular target: T1, ΔNp63α; assay: fluorescence polarisation; fluorescence anisotropy; 500 nM Alexa 488 labeled DARPin constant, p63 isoform 0-10 µM; 50 mM Tris pH 8, 150 mM NaCl, 0.5 mM TCEP, 0.1 % Tween-20; the sheet says 20 °C, the methods 16 °C
TAp63α = molecular target: T4, TAp63α (human); assay: as above
T4 construct: closed, dimeric; also called TAp63a; source: E. coli, bacterially expressed and purified (IMAC, SEC on Superdex 200)

Ka (p63 DNA-binding domain) [M⁻¹]	Ka (p73 DNA-binding domain) [M⁻¹]	Kd (ΔNp63α) [nM]	Kd (TAp63α) [nM]	Binder
3.14e+07	4.48e+06	–	–	DARPin G4 (designed binder, G4 assigned to 7Z7E by elimination: 7Z71 = C14, 7Z72 = A5, 7Z73 = 8F1; 7Z7E is the other p63 DBD-DARPin complex) GSDLGKKLLEAARAGQDDEVRILMANGADVNAADHSGDTPLHLAAMEGHLEIVEVLLKTGADVNAHDLEGYTPLHLAAYHGHLEIVEVLLKAGADVNAWDSYGYTPLHLAAMTGHLEIVEVLLKHGADVNAQDKFGKTPFDLAIDNGNEDIAEVLQKAA
–	–	137	727	Alexa 488 labeled DARPin G4 (designed binder, Alexa Fluor 488 C5 maleimide on the C-terminal cysteine) GSDLGKKLLEAARAGQDDEVRILMANGADVNAADHSGDTPLHLAAMEGHLEIVEVLLKTGADVNAHDLEGYTPLHLAAYHGHLEIVEVLLKAGADVNAWDSYGYTPLHLAAMTGHLEIVEVLLKHGADVNAQDKFGKTPFDLAIDNGNEDIAEVLQKAA
